# B1: TPR t1 (parent)
# chain: GACCAAUCUGCCCUCAGAGCUCGAGAACAUCUUCGGAUGCAGAGGAGGCAGGCUUCGGUGGCGCGAUAGCGCCAACGUCCUCAACCUCCAAUGCAUCCCACCACAUGAUGAUGCCUGAAGAGCCUUGGUUUUUUG
# Variants of: B1
# Assay: polymerase ribozyme fitness, log enrichment relative to wild type (log ratio); higher = more active; in vitro selection for triplet polymerase activity
# Summary of the method: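 Libraries of mutants in each subunit of a heterodimeric triplet polymerase ribozyme were generated by PCR and transcribed. In triplicate, each went through one in vitro selection round: annealing with biotinylated primer, partner subunit and triplets; frozen incubation at −7 °C; gel excision of extended constructs; streptavidin-bead capture; RT-PCR. Fitness, taken from Illumina sequencing of input and output libraries, is the logarithm of a genotype's enrichment over wild-type enrichment, averaged across replicates with inverse-variance weights. The logarithm is base 2, and genotypes needed ≥10 input reads and ≥1 read per output to be kept.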
row,Variant,polymerase ribozyme fitness (log ratio)
1,C20A C56G,-3.63
2,C20U G35C G57U C80U U129G,-5.92
3,A18U U55G C56G,-4.5
4,C20A G47U C72A A111C,-3.96
5,G19U A111C,-2.32
6,C20G G69U C99U,-5.06
7,U21A G52A C89U,-1.17
8,C20G G63C,-4.72
9,C20G G63A,-6.16
10,C20G C56A C124U,-4.05
11,G19U G58C,-4.22
12,C20A G57C C62U,-1.88
13,C20A C22G G113A U132A,-4.93
14,U21A C104U,-0.273
15,C20A G48U C70A U78G G113A G117C,-7.02
16,C20U G44U A50G A74G,-3.66
17,A18U G63U,-4.1
18,A18U G63A,-3.69
19,C20U C76A,-2.08
20,U21A C124G,0.373
21,G19U C56U C89G,-3.6
22,C20U G52A,-0.737
23,A18U U81A,-3.77
24,C20G G69A G113A,-5.37

row,Variant,polymerase ribozyme fitness (log ratio)
1,C20G G47A G57U,-5.83
2,G19U A121U,0.0875
3,C20G C72A C115A,-4.55
4,C20G C40U G42C G48U U109A,-4.15
5,C20U C72G C102A,-3.19
6,C20G G107A C114U G122A,-6.03
7,G19A A43U,-2.7
8,G19C G58C A75U C82G,-3.28
9,G19A G48A A91G,-3.87
10,A18U G44C G69U,-0.776
11,C20G U112C,-2.48
12,C20A G42C A43G,-3.32
13,C20U G77U A91G,-5.11
14,C20U A41G G60C,-2.04
15,G19A C53A U125G,-3.26
16,U21A C62A C89U G110A U112C,-5.55
17,A18U G44U G110A,-5.32
18,A18U G58A U112A G122U,-2.54
19,C20U C56A C73U U129G U130A,-3
20,C20G C28U A37U A43U G45A U106A C123G,-7.36
21,C20U C53G G69C,-2.15
22,G19C C88U,-2.6
23,C20A U87G U92G,-4.3
24,A18U G60A C72U G122A U130G,-3.74

row,Variant,polymerase ribozyme fitness (log ratio)
1,C20U A24U C56U,-6.92
2,C20U G52A C70U G120A,-1.85
3,G19A C20U U55G G57U C99A G113U,-6.19
4,G19C G45A C53U,-3.65
5,C20U C22G A50C C97U U106A A121C,-4.3
6,G19U C56A G113C,-3.24
7,G19U G51A G60A G77C G113U,-6.6
8,U21A C34A C82A C123U U133G,-2.66
9,G19U G107A G120A U125A,-7.29
10,A18U G42A,-2.11
11,G19C C20A C56U G71A A95U C102U U116C C123U U126G,-5.6
12,C20U A43G C62U U112C,-1.04
13,G19U C80A G113A,-5
14,G19C C49A A50U G69U C89U U106A C123G U132A U133G,-1.46
15,C20U C123A,-0.867
16,C20U A29G G63A C80U,-4.01
17,U21A A46U C53A G63C,-1.83
18,U21C A41G G44A C98U,-4.24
19,U21A C56A,-0.423
20,U21A C56U,-0.334
21,G19U U59A,-3.3
22,G19A C70U C76G U81C,-4.57
23,C20U A43U,-2.08
24,U21A G44A C62U,-1.4

row,Variant,polymerase ribozyme fitness (log ratio)
1,C20A C31U G44C A68C G113C U116C G135C,-5.66
2,U21A U92A,-3.73
3,G19U C79U C82U A95C C101A,-4.63
4,U21C C22U C53G G57U G60A,-5.06
5,C20G G60A G120C,-4.56
6,C20A G63A C102G G113C C115A G117C,-8.43
7,C20U A27C G117U,-6
8,U21C C124U,1.84
9,G19A G60A,-1.41
10,C20U G51U G71A,-6.53
11,U21A A43U C72A,-2.36
12,G19A G58C G107A C114U,-3.12
13,G19A G51U G60A C124U,-5.85
14,A18U U54A A83U,-4.98
15,C20U C94G C101U U106A,-5.04
16,G19A U106A,-2.97
17,C20G G51A G61A C85G A121U,-7.66
18,C20G G45U G61A,-4.19
19,C20A C86G C114U C115U,-5.24
20,G19U G25A C53U C64G G107C C114G,-8.12
21,A18U U116C G117A,-4.83
22,C20G U116C,-3.78
23,G19A A50U G113C,-2.01
24,G19C C20U C31G C89U U109C C123U,-7.81

row,Variant,polymerase ribozyme fitness (log ratio)
1,G19U U55G U87G A95C U112C C114A,0.393
2,A18U C124A,-0.753
3,C20G G117C,-5.4
4,C20U C53G,-1.28
5,C20U C28U G45C,-4.64
6,C20U A26G G60C A90C,-4.37
7,C20A G52C U125A,-3.04
8,G19C C101A,-3.27
9,C20A A27G C40G U55C G71C,-4.12
10,A18U G48U C64U C88U,-2.9
11,C20A U112C U116A,-3.11
12,C20U G23A G61A U112A G113A G122C U130C,-6.32
13,C20A C70A C123A U130A,-4.36
14,G19C C53G C62U C86U,-2.88
15,U21C G52U G60C,-1.61
16,C20G C123G,-2.95
17,G19A C70A C94U,-5.61
18,C20U A43G C62U U78G U87A C89G,-5.31
19,G19C G39A C53A C76U,-3.34
20,U21A G23A A121C,-5.61
21,C20A U32A,-3.55
22,C20U A46C C72G,-3.17
23,C20U U55G C56A,-1.7
24,C20A G39C,-3.59

row,Variant,polymerase ribozyme fitness (log ratio)
1,C20A U32G G44A C73A C114G U132A,-5.73
2,C20G G44C C72G A95G,-5.22
3,G19C G69C C86G A121G,-3.28
4,C20A C124A,-0.989
5,C20A A43C C94U,-4.19
6,C20G U32G C80A C99A C124G,-5.93
7,C20U A91U,-2.81
8,C20A C56U U96G,-3.51
9,G19A G44U C124A,-1.74
10,G19U C86U,-2.9
11,U21A A46U G93A G113U U130A U132A,-3.92
12,U21A C72G C86G,-2.59
13,U21A C22A C40U C73U C101A U133G,-5.39
14,G19A C62U C88A A121C,-1.46
15,C20U C72U C82U C115A,-1.91
16,C20U G47U C82G,-4.12
17,U21C C28A G57U C70A U78G G110U,-3.7
18,G19A C102A,-5.35
19,C20U G36U C70U G135U,-3.95
20,C20U G63C C94A G120C,-2.23
21,C20A U59A U78A G117A,-4.88
22,U21A G23U G42C A68G C94A U112A,-6.75
23,C20U G44A A74G U87C U92A G93A C124U,-3.64
24,C20A U92G G110U,-5.28

row,Variant,polymerase ribozyme fitness (log ratio)
1,U21A U59C G69U C123A G128C,-3.33
2,C20U C22A C76U C85G C123U,-5.95
3,C20A G39A G42C G61U U129C,-5.17
4,C20A U96A C102G C114A,-5.84
5,U21A C40A A46U A90U G93U,-2.45
6,C20G C97A U116C C123G,-5.78
7,C20A U59C,-2.71
8,C20A G93U U112G,-4.35
9,U21A G36A,-0.614
10,C20U A43G U112C,-0.81
11,U21A G39C C49U G63A A75G A121C,-2.73
12,C20U G52U C53U C56A C123A,-3.62
13,C20U C62A C104U A119U C123A G128U,-2.83
14,G19A A83G C114G G122C,-4.41
15,U21A A37U C72U,-0.453
16,C20A C73U,-2.08
17,A18U G117U,-4.36
18,C20A G127A,-3.23
19,G19C C31G C72G G110U U131A,-7.2
20,G19A A41U C62U C94U,-3.23
21,C20G U21A C62U U112A,-1.31
22,G19A C49G G63C G93C A105C G107C G117C,-6.07
23,C20G C76U G93C A95G C124A,-4.72

# — the RNAGym collection of RNA variant scans (doi:10.1073/pnas.2313332121)
